B1: I075G01 (scFv)
scFv: QVQLVQSGAEVKKPGASVKVSCKTSGYTFTGYNINWVRQAPGQGLEWMGWVSPSNGDTSYAQTFQGRVTMTRDTSISTAYMELSSLKSDDTAVYYCARDHFDTLTGYFRRLDSWGQGTLVTVSSGGGGSGGGGSGGGGSALSSELTQDPEVSVALGQTVTITCQGDSLITHYASWFQQKPGQAPLLVFYSKDKRPSGIPDRFSGSYSGNTASLTITGAQAEDEADYYCNSRDSRGKNHVAFGGGTKLTVLG
B2: I072B09 (scFv)
scFv: QVQLQQSGAEVKKPGASVKVSCRASGYTFTKYTMHWVRQAPGQGPEWMGWINGGSGDTKYSRKFQGRVTITKDTSASAAYMELSSLGSEDTALYYCARATYDPLTGYSFDGFDIWGQGTLVTVSSGGGGSGGGGSGGGGSSELTQDPAVSVALGQTVRITCQGDSLRSYYTNWFQQKPGQAPLLVVYAKNKRPSGIPDRFSGSSSGNTASLTITGAQAEDEADYYCNSRDSSGNHVVFGGGTKLTVLD
B3: I075F12 (scFv)
scFv: QVQLVQSGAEVKKPGSSVKVSCKASGGTVSSRTISWVRQAPGQGLEWMGGSLPPSGAPIYAQKFQGRVAITADALTNTAFMELRSLKSDDTAVYYCARDQGRYLDLWGQGTMVTVSSGGGGSGGGGSGGGGSAQAVLTQPSSASGTPGQRATISCSGSSSDIGINAVNWYKQLPRTAPKLLIYRNNQRPSGVPDRFSGSKSGTSASLAIIGLQSEDEADYYCATWDDSLTAYVFGTGTKVTVLG
B4: I078D02 (scFv)
scFv: QVQLQQSGAEVKKPGASVKVSCKASGYTFTSYGISWVRQAPGQGLEWMGWISAYNGNTNYAQKLQGRVTMTTDTSTSTAYMELRSLRSDDTAVYYCARVYYDILTGYNLFFDYWGKGTMVTVSSGGGGSGGGGSGGGGSQSVLTQPASVSGSPGQSITISCTGTSSDVGGYNYVSWYQQHPGKAPKLMIYEGSKRPSGVSNRFSGSKSGNTASLTISGLQAEDEADYYCSSYTTRSTRVFGGGTKLTVLG
B5: I078H08 (scFv)
scFv: QVQLVQSAAEVKKPGASVKVSCKASGYTFTSYGISWVRQAPGQGLEWMGWISAYNGNTNYAQKLQGRVTMTTDTSTSTAYMELRSLRSDDTAVYYCARVYYDILTGYNLFFDYWGRGTTVTVSSGGGGSGGGGSGGGGSQSVLTQPASVSGSPGQSITISCTGTSSDVGGYNYVSWYQQHPGKAPKLMIYEGSKRPSGVSNRFSGSKSGNTASLTISGLQAEDEADYYCSSYTTRSTRVFGGGTKLTVLG
B6: I068B04 (scFv)
scFv: QVQLVQSGAEVKKPGSSVKVSCKASGGTVSSRTISWVRQAPGQGLEWMGGSLPPSGAPIYAQKFQGRVAITADALTNTAFMELRSLKSDDTAVYYCARDQGRYLDLWGRGTLVTVSSGGGGSGGGGSGGGGSALPVLTQPPSASATPGQRVTISCSGSSSNIGSNYVYWYQQLPGTAPKVLIYRNNQRPSGVPDRFSGSRSGTSASLAISGLRSEDEADYYCATWDDSLSGPVFGGGTKVTVLG
B7: I065F08 (scFv)
scFv: QVQLQQSGAEVKKPGSSVKVSCKASGDTFSSFGISWVRQVPGQGLEWMGAIIPKFDIVTYAEEFKGRVTISADKLTNTAYMEVKSLRSEDTAVYYCTREKSAAGYFDYWGKGTLVTVSSGGGGSGGGGSGGGGSDIVMTQSPSTLSASVGDRVTITCRASQGISSWLAWYQQKPGRAPKVLIYKASTLESGVPSRFSGSGSGTDFTLTISSLQPEDFATYYCQQSYSTPWTFGQGTKLEIKR
B8: I030A10 (scFv)
scFv: QVQLVQSGAEVKKPGSSVKVSCRASGGSFNHAISWVRQAPGRGLEWMGGILPMYGTANYAQKFQGRVTITADKLTNTVYMDLSRLRYEDTAVYYCARELGLSIVGATTGALDMWGRGTLVTVSSGGGGSGGGGSGGGGSAQAVLTQPSSVSGAPGQRVIISCTGSSSNIGPDYDVHWYQQLPGTAPKLLIYGNNNRPSGVPDRFSGSKSGTSASLAITGLQAEDEAHYYCQSYGSSLSGVVFGGGTKVTVLG
B9: I065D08 (scFv)
scFv: GVQLVQSGAEVKKPGASVKVSCKASGYTFTSYGISWVRQAPGQGLEWMGWISAYNGNTNYAQKLQGRVTMTTDTSTSTAYMELRSLRSDDTAVYYCARTPSSVYDLLTGYYHYFYSYMDVWGRGTMVTVSSGGGGSGGGGSGGGGSQSVLTQPASVSGSPGQSITISCTGTSSDVGGYNYVSWYQQHPGEAPKLMIYEGSKRPSGVSNRFSGSKSGNTASLTISGLQAEDEADYYCSSYTTRSTRVFGGGTKLTVLG
B10: I069B07 (scFv)
scFv: QVQLVQSGAEVKKPGASVKVSCKASGYTFTSYGISWVRQAPGQGLEWMGWISAYNGNTNYAQKLQGRVTMTTDTSTSTAYMELRSLRSEDTAVYYCARMEYDILTGYYGGYFDYWGQGTMVTVSSGGGGSGGGGSGGGGSQSVLTQPASVSGSPGQSITISCTGTSSDVGGYNYVSWYQQHPGKAPKLMIYEGSKRPSGVSNRFSGSKSGNTASLTISGLQAEDEADYYCSSYTTRSTRVFGGGTKLTVLG
B11: I002A01-R (scFv)
scFv: QVQLVQSGAEVKKPGSSVKVSCRASGGSFNRHAISWVRQAPGRGLEWMGGILPMYGTANYAQKFQGRVTITADKLTNTVYMDLSRLRYEDTAVYYCARELGLSIVGATTGALDMWGKGTLVTVSSGGGGSGGGGSGGGGSALPVLTQPPSVSVAPGQTATLTCGGTNFGRQSVHWYQQKPGQAPVLAIYHDDVRPSGIPERLSGSKSGNTATLTISRVEAGDEAAYYCQVWDSGSDVVVFGGGTKLTVLG
B12: I002A01-K (scFv)
scFv: QVQLVQSGAEVKKPGSSVKVSCRASGGSFNKHAISWVRQAPGRGLEWMGGILPMYGTANYAQKFQGRVTITADKLTNTVYMDLSRLRYEDTAVYYCARELGLSIVGATTGALDMWGKGTLVTVSSGGGGSGGGGSGGGGSALPVLTQPPSVSVAPGQTATLTCGGTNFGRQSVHWYQQKPGQAPVLAIYHDDVRPSGIPERLSGSKSGNTATLTISRVEAGDEAAYYCQVWDSGSDVVVFGGGTKLTVLG
B13: I068C08 (scFv)
scFv: QVQLQQSGAEVKKPGSSVKVSCQASGGSFSREGISWVRQAPGHGLEWMGRIIPVLGVADYAQKFQGRVKISVDRLTSVAYMELTSLRFEDTAVYYCAREGMNDFINSHHYYTMDAWGQGTLVTVSSGGGGSGGGGSGGGGSAQAVLTQPSSVSGAPGQRVTISCTGSSSNIGAGYDVHWYQQLPGTAPKLLIYGNSNRPSGVPDRFSGSKSGTSASLAITGLQAEDEADYYCQSYDSSLSGSVFGGGTKLTVLG
B14: I068F03 (scFv)
scFv: EVQLVQSGADVKKPGASVKVSCKASHYPFTTYGVSWVRQAPGQGLEWMGWISNYNGHTRYAPKFQGRVTLTTDTLTNTAFMELKSLTSDDTAIYYCARAGNEYGHTERPADYWGKGTMVTVSSGGGGSGGGGSGGGGSAQAVLTQPSSVSGAPGQRVTISCTGSSSNIGAGYDVHWYQQLPGTTPKLLISRNNNRPPGVPDRFSGSKSGTSASLAITGLQAEDEADYYCQSYDTTLRGWVFGGGTKVTVLG

Target: T1, biotinylated B Lymphocyte Stimulator, soluble form (human, UniProt Q9Y275 134-285, biotinylated with NHS-biotin, molar ratio 20:1 biotin:protein)
T1 construct: also called bio-B Lymphocyte Stimulator; free B Lymphocyte Stimulator
Assay: phage scFv, receptor binding inhibition on IM9 cells
Procedure: All of the unique phage scFvs from panel 2 were assessed for their ability to inhibit B Lymphocyte Stimulator binding to its cognate receptor on IM9 cells. The biotinylation of B Lymphocyte Stimulator, maintenance of IM9 cells and receptor binding inhibition assay were performed as described in Example 3.

Binding result, binds:
B1
B2
B3
B4
B5
B6
B7
B8
B9
B10
B11
B12
B13
B14
